Earlier results on one substance are cited in patent US20230372299A1, “PREPARATION OF TEREVALEFIM AND FORMULATIONS THEREOF” (Angion Biomedica Corp., priority 2020, published 2023).

For the substance “HGF/SF: pleiotropic growth factor that stimulates cell growth, cell motility, morphogenesis and angiogenesis”, the half-life is 3 to 5 min.

The half-life is the time in which the quantity being followed falls by half.
